Reference: paper PMC3712460

B1: NapD^His (natural protein)
chain: MHTNWQVCSLVVQAKSERISDISTQLNAFPGCEVAVSDAPSGQLIVVVEAEDSETLIQTIESVRNVEGVLAVSLVYHQQEEQGEETP
B2: NapD I19F (NapD^His variant) (natural protein)
chain: MHTNWQVCSLVVQAKSERFSDISTQLNAFPGCEVAVSDAPSGQLIVVVEAEDSETLIQTIESVRNVEGVLAVSLVYHQQEEQGEETP
B3: NapD I19F/T59I (NapD^His variant) (natural protein)
chain: MHTNWQVCSLVVQAKSERFSDISTQLNAFPGCEVAVSDAPSGQLIVVVEAEDSETLIQIIESVRNVEGVLAVSLVYHQQEEQGEETP
B4: NapD T59I (NapD^His variant) (natural protein)
chain: MHTNWQVCSLVVQAKSERISDISTQLNAFPGCEVAVSDAPSGQLIVVVEAEDSETLIQIIESVRNVEGVLAVSLVYHQQEEQGEETP
B5: NapD A14T/A71T (NapD^His variant) (natural protein)
chain: MHTNWQVCSLVVQTKSERISDISTQLNAFPGCEVAVSDAPSGQLIVVVEAEDSETLIQTIESVRNVEGVLTVSLVYHQQEEQGEETP
B6: NapD A14T (NapD^His variant) (natural protein)
chain: MHTNWQVCSLVVQTKSERISDISTQLNAFPGCEVAVSDAPSGQLIVVVEAEDSETLIQTIESVRNVEGVLAVSLVYHQQEEQGEETP
B7: NapD A71T (NapD^His variant) (natural protein)
chain: MHTNWQVCSLVVQAKSERISDISTQLNAFPGCEVAVSDAPSGQLIVVVEAEDSETLIQTIESVRNVEGVLTVSLVYHQQEEQGEETP

What was measured:
Assay in all cases: ITC
[1] = target: NapA signal peptide (Escherichia coli) (UniProt P33937); settings: cited from earlier work
[2] = target: ϕMalE-NapAsp^His A17Q variant (E. coli)
[3] = target: ϕMalE-NapAsp^His K10Q (E. coli)
[4] = target: ϕMalE-NapAsp^His (E. coli)
[5] = target: ϕMalE-NapAsp^His R6Q (E. coli)
[6] = target: ϕMalE-NapAsp^His M9Q (E. coli)

Molecule	Kd [2] [nM]	stoichiometry N [2]	Kd, population 1 (two sites) [2] [nM]	Kd, population 2 (two sites) [2] [nM]	N, population 1 (two sites) [2]	N, population 2 (two sites) [2]	Kd [4] [nM]	stoichiometry N [4]	further results
NapD (from UniProt P0A9I5)									Kd [1]: 7 nM
B1	1100	0.16							Kd [3]: 1300 nM; stoichiometry N [3]: 0.33; Kd, population 1 (two sites) [4]: 3 nM; Kd, population 2 (two sites) [4]: 143 nM; N, population 1 (two sites) [4]: 0.35; N, population 2 (two sites) [4]: 0.64; Kd [5]: 725 nM; stoichiometry N [5]: 0.6; Kd, population 1 (two sites) [6]: 1 nM; Kd, population 2 (two sites) [6]: 75 nM; N, population 1 (two sites) [6]: 0.13; N, population 2 (two sites) [6]: 0.65
B2			14	704	0.29	0.62	806	0.97	
B3			22	261	0.25	0.65	935	0.39	
B4	633	0.57					328	0.81	
B5			12	218	0.3	0.69	571	0.91	
B6	1870						763	0.7	
B7	833	1.11					313	0.83	
